The series concerns the molecule itself. In words: SEC. A general note: SEC sorts molecules by how far they enter the pores of the column.

Here are results for one protein from publication doi:10.1101/2025.11.14.688508 (bioRxiv, 2025).

B1: DY-647P1-labeled recombinant human Bax single cysteine mutant (S4C, C62S, C126S) (natural protein)
chain: MDGCGEQPRGGGPTSSEQIMKTGALLLQGFIQDRAGRMGGEAPELALDPVPQDASTKKLSESLKRIGDELDSNMELQRMIAAVDTDSPREVFFRVAADMFSDGNFNWGRVVALFYFASKLVLKALSTKVPELIRTIMGWTLDFLRERLLGWIQDQGGWDGLLSYFGTPTWQTVTIFVAGVLTASLTIWKKMG
modifications: cysteine labeling with DY-647P1 (single cysteine mutant; degree of labeling ~74 %)
Turning to B1, the binding result is on record as “binds”.
